This note sets out measurements from paper PMC8799657 (Nature Communications, 2022).

Experiment [1] addresses T1, soluble human transferrin receptor 1 (human, UniProt P02786).
T1 construct: also called sTfR1; human sTfR1
Put plainly: BLI. To be noted: both partners purified.

Experiment [2] has as its target T2, human transferrin receptor 1 on the cell surface (human (endogenous in erythroblasts), UniProt P02786).
T2 construct: also called hTfR1; TfR1
To be noted: one partner purified.

T2 sequence (P02786 whole entry): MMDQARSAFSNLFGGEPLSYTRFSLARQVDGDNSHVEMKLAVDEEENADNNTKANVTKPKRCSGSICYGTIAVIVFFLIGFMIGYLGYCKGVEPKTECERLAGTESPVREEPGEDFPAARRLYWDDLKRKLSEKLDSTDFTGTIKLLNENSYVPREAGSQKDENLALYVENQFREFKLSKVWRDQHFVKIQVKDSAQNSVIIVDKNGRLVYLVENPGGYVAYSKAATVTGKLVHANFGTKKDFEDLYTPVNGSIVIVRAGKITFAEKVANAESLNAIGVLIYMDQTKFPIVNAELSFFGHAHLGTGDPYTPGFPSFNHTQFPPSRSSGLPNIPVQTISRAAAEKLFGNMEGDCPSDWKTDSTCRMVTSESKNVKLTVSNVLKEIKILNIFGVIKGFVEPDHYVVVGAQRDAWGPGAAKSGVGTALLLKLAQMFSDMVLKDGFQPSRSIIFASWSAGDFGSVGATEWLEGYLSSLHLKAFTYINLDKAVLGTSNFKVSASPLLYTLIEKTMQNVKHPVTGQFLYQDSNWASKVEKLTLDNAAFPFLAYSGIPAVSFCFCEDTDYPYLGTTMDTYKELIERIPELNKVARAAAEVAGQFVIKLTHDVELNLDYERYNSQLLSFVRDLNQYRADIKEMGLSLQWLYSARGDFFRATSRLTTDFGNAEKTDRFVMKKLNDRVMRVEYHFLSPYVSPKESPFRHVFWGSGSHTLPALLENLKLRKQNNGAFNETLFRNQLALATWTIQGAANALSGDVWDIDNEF
T1 sequence (P02786 121-760): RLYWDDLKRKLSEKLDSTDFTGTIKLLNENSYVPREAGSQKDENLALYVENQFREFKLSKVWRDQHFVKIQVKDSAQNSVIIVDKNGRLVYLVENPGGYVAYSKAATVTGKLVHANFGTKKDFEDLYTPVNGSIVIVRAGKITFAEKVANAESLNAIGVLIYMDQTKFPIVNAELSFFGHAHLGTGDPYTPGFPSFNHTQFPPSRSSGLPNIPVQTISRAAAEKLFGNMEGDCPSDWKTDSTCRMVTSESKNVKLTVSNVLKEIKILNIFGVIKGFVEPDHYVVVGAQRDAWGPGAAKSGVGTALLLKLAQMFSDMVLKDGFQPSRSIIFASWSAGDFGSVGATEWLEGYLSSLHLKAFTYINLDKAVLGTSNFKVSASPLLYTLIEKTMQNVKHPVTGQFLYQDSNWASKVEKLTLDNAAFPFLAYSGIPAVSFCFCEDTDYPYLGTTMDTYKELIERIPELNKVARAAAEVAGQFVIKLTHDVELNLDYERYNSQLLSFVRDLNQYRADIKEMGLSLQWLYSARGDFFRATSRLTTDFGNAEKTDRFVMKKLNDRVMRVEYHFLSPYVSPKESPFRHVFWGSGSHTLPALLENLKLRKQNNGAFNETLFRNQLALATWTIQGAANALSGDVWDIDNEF

B1: Fab fragment of the mouse/human chimeric 128.1 IgG1 antibody (Fab, V domains shown)
VH: EVQLQQSGPELVKPGASMKISCKASGYSFTGYTMNWVKQSHGENLEWIGRINPHNGGTDYNQKFKDKAPLTVDKSSNTAYMELLSLTSGDSAVYYCARGYYYYSLDYWGQGTSVTVSS
VL: QIVLTQSPAIMSVSPGEKVTMTCSASSSIRYIHWYQQRPGTSPKRWIYDTSNLASGVPARFSGSGSGTSYSLTISSMEAEDAATYYCHQRNSYPWTFGGGTRLEIR
notes: also called Fab ch128.1/IgG1; ch128.1 Fab
Regarding B1, the binding result in experiment [1] is reported as “binds”.

B2: mouse/human chimeric IgG1/κ antibody ch128.1/IgG1 (antibody, V domains shown)
VH: B1 VH
VL: B1 VL
Consider B2, for which the binding result in experiment [2] is “binds”.
